In the assay the test system is PPIs identified as affected by the SH3 domain deletions. The assay can be described thus: Liquid DHFR-PCA low-throughput validation of PPIs affected by SH3 deletion (Fig. S1D-E). It is filed as cell-based, Saccharomyces cerevisiae. To be noted: label = prey, liquid DHFR-PCA, prey _1 = lost, _2 = gained in screen. As for the experimental part: Liquid DHFR-PCA low-throughput experiments were performed to validate the PPIs identified as affected by the SH3 domain deletions in the high-throughput solid DHFR-PCA screen (256 PPIs weaker or lost and 116 PPIs stronger or gained following domain deletions). Mating and the diploid selection were performed as described for the large-scale experiment, with the exception that the plates were in 384 formats. Following the second diploid selection, diploid cells were inoculated in a 96 v-shaped well plate using a robotically manipulated 96 pin tool in a synthetic complete medium with MSG at pH 6.0 with NAT and HPH. After 48 h of growth, optical density (OD) was read using a TECAN Infinite F200 Pro, and dilutions to 1 OD in sterile nanopure water were prepared. Cells were then diluted to 0.1 OD by combining 25 µl of cell suspension at OD = 1 and 225 µl of PCA selection media without agar in a 96-wells plate. Plates were incubated at 30 °C in a TECAN Infinite M Nano and OD was monitored each 15 min for 72 h.

B1: YFR024C-A_1 (protein, UniProt P43603 1-459, looked up)
LAS seventeen-binding protein …: MGINNPIPRSLKSETKKAAKILASFVKPNQVFGADQVIPPDVLKRAKGLAIITILKAGFLFSGRAGSGVIVARLKDGTWSAPSAIAMAGAGAGGMVGIELTDFVFILNTQDAVKSFSEFGTITLGGNVSVSAGPLGRSAEAAASASAGGVAAVFAYSKSKGLFAGVSVEGSAIIERREANRKFYGDNCTAKMILSGRIRPPPAVDPLFRVLESRAFNYRPSNGGRGSFDDDEDDYYDDDDYYNDIPSSFSSTDASSTRPNTRSTRRRAQSGSRYTFDDDDDDDDYGTGYSRNSRLAPTNSGGSGGKLDDPSGASSYYASHRRSGTAQSRARSSRNRWADDEYDDYDDDYESGYRRGNGRDRTKDREVDDLSNRFSKSRISSASTPQTSQGRFTAPTSPSTSSPKAVALYSFAGEESGDLPFRKGDVITILKKSDSQNDWWTGRVNGREGIFPANYVELV
Consider B1, for which the “Ratio (Deletedscore / WTscore)” value stood at 0.507 (bait BBC1); 0.736 (bait BZZ1-1); 1.194 (bait HOF1); 0.7743 (bait MYO3); 0.8345 (bait MYO5); 0.8585 (bait RVS167).

B2: YGR229C_1 (protein, UniProt P32566 1-505, looked up)
Cell wall assembly regulator …: MDLFKRKVKEWVYSLSTDDHYAEYNPDETPTFNMGKRLNSNNGQVNPSQMHLNSVDEEMSMGFQNGVPSNEDINIDEFTSTESNDGVSETLLAWRHIDFWTSEHNPDLNATLSDPCTQNDITHAEEDLEVSFPNPVKASFKIHDGQEDLESMTGTSGLFYGFQLMTLDQVVAMTQAWRNVAKNLNKRSQQGLSHVTSTGSSSSMERLNGNKFKLPNIPDQKSIPPNAVQPVYAHPAWIPLITDNAGNHIGVDLAPGPNGKYAQIITFGRDFDTKFVIAENWGEFLLSFANDLEAGNWYLVDDNDDYFSGDGELVFRDKKSNGPIQDYFEVLKRRTWIKYQENLRSQQQKSQPDTSLQEQKYVPASQKKVAAEQPSTLNAESIKGEDSGSADVQSVQDHESVKIVKTEPSEAETTTVNTESLGQAEHEIKADNVDIKQESERKEDEKQPKVEEKEHVENEHVTESAKKDDDVNKQTEEMNKKEENEIRSDDAKVEEAREEFENIAL
On to B2, for which the “Ratio (Deletedscore / WTscore)” value reads like this: (bait BBC1) 0.6664; (bait BEM1-1) 0.1513.

B3: YPR055W_1 (protein, UniProt P32855 1-1065, looked up)
Exocyst complex component SEC8: MDYLKPAQKGRRRGLSINSLSETQQSAMNSSLDHLQNDLNRINLQWNRILSDNTNPLELALAFLDDTSVGLGHRYEEFNQLKSQIGSHLQDVVNEHSQVFNTNVASYGKAVSSIMQAQEQTLNLKNCLKEANEKITTDKGSLQELNDNNLKYTKMIDVLVNIEELLQIPEKIEENIRKENFHQVQILLERGFILMNNKSLKTVEILKPINQQLELQEHLLFNNLIEEIHDIMYSKSNKTNFTRVTNNDIFKIISISHNGFTSLENYLYNIVNIDIMEHSKTINKNLEQFIHDQSLNKGNIMLQENAATQAPLAPSRNQENEGFNRIGFLLKTINNINKLPVAFNIITERAKEEIHNIIVKSTESIRSKHPSLLKMATSLKNDNHFGLPVQDILSIILRECFWEIFLKLLYAIQCHRAIFEMSNILQPTSSAKPAFKFNKIWGKLLDEIELLLVRYINDPELISSNNGSIKPINGATNNAPTLPKRKNPKIFSLEYNIEDNSSVKDQAFELKALLKDIFPGFSVSSNMDLDSIYVKDESFEQDEPLVPPSVFNMKVILDPFLLFTQSTSTIVPSVLTQNTISSLTFFDDYMNKSFLPKIQMTMDYLFTVEVESNNPYALELSDENHNIFKTALDFQRLFYNLLNVFNTANTFREKISYCILDLLNHFYNYYLGLFNSLIGTSDRHLTRKIITAWLQNGILMDQEQKILNGDETLFHEESIELFKEIPHFYQAGKGLSKSDLFNNLTLDTILQFSASVLWILNWLPGLKKAINIDEVSQEPMLDADRLRSSWTFSESMDLNYSNPSSSPNSLGNLKILLDDKASKKFDETIDGFKTLKFKLITILRFNIRALCIYDIGSFFQNTKIWNMDVGSIELDQNIASLISELRRTESKLKQQLPEKEKNSIFIGLDIVNNYALIKGAKSIKVLNHNGIKKMLRNVNVLQHAYRNLSSEPSKINMNVTMNFYSLCGSSEAELFEYIKDNELPHCSVEDLKTILRLQFSEEMHRQLKRQSTSSTKGSIKPSNKRYTEALEKLSNLEKEQSKEGARTKIGKLKSKLNAVHTANEK
As for B3, the “Ratio (Deletedscore / WTscore)” value by setting is: (bait ABP1) 0.936; (bait BEM1-1) 1.037; (bait BEM1-2) 0.6358; (bait LSB3) 0.783.

B4: YBL007C_1 (protein, UniProt P32790 1-1244, looked up)
Actin cytoskeleton-regulatory …: MTVFLGIYRAVYAYEPQTPEELAIQEDDLLYLLQKSDIDDWWTVKKRVIGSDSEEPVGLVPSTYIEEAPVLKKVRAIYDYEQVQNADEELTFHENDVFDVFDDKDADWLLVKSTVSNEFGFIPGNYVEPENGSTSKQEQAPAAAEAPAATPAAAPASAAVLPTNFLPPPQHNDRARMMQSKEDQAPDEDEEGPPPAMPARPTATTETTDATAAAVRSRTRLSYSDNDNDDEEDDYYYNSNSNNVGNHEYNTEYHSWNVTEIEGRKKKKAKLSIGNNKINFIPQKGTPHEWSIDKLVSYDNEKKHMFLEFVDPYRSLELHTGNTTTCEEIMNIIGEYKGASRDPGLREVEMASKSKKRGIVQYDFMAESQDELTIKSGDKVYILDDKKSKDWWMCQLVDSGKSGLVPAQFIEPVRDKKHTESTASGIIKSIKKNFTKSPSRSRSRSRSKSNANASWKDDELQNDVVGSAAGKRSRKSSLSSHKKNSSATKDFPNPKKSRLWVDRSGTFKVDAEFIGCAKGKIHLHKANGVKIAVAADKLSNEDLAYVEKITGFSLEKFKANDGSSSRGTDSRDSERERRRRLKEQEEKERDRRLKERELYELKKARELLDEERSRLQEKELPPIKPPRPTSTTSVPNTTSVPPAESSNNNNSSNKYDWFEFFLNCGVDVSNCQRYTINFDREQLTEDMMPDINNSMLRTLGLREGDIVRVMKHLDKKFGRENIASIPTNATGNMFSQPDGSLNVATSPETSLPQQLLPQTTSPAQTAPSTSAETDDAWTVKPASKSESNLLSKKSEFTGSMQDLLDLQPLEPKKAAASTPEPNLKDLEPVKTGGTTVPAAPVSSAPVSSAPAPLDPFKTGGNNILPLSTGFVMMPMITGGDMLPMQRTGGFVVPQTTFGMQSQVTGGILPVQKTGNGLIPISNTGGAMMPQTTFGAAATVLPLQKTGGGLIPIATTGGAQFPQTSFNVQGQQQLPTGSILPVQKTANGLISANTGVSMPTVQRTGGTMIPQTSFGVSQQLTGGAMMTQPQNTGSAMMPQTSFNAVPQITGGAMMPQTSFNALPQVTGGAMMPLQRTGGALNTFNTGGAMIPQTSFSSQAQNTGGFRPQSQFGLTLQKTGGIAPLNQNQFTGGAMNTLSTGGVLQQQQPQTMNTFNTGGVMQELQMMTTFNTGGAMQQPQMMNTFNTDGIMQQPQMMNTFNTGGAMQQPQQQALQNQPTGFGFGNGPQQSRQANIFNATASNPFGF
On to B4, for which the “Ratio (Deletedscore / WTscore)” value by setting is: (bait BBC1) 0.5353; (bait LSB1) 0.9074; (bait MYO3) 0.6734; (bait MYO5) 0.8649; (bait PIN3) 0.824.

B5: YFL010C_1 (protein, UniProt P43582 1-211, looked up)
WW domain-containing protein …: MAQSKSNPPQVPSGWKAVFDDEYQTWYYVDLSTNSSQWEPPRGTTWPRPKGPPPGVNNEKSSRQQADQAPPPYSSQSTPQVQAGAQAQQPRYYQPQQPQYPQYPQQQRYYPQQAPMPAAAPQQAYYGTAPSTSKGSGHGGAMMGGLLGVGAGLLGGAMLEHAFDDHNYDGPDTVVVENNYYGDDAGGSDGGFDDAGGFDGGFDDGFDGSDF
As to B5, under “bait BBC1”, the “Ratio (Deletedscore / WTscore)” value is listed as 0.6877.
